Measurements published in the Human Domainome abundance scans (Beltran et al. 2025).
± gives the uncertainty stated by the source.

B1: E3 ubiquitin-protein ligase TRIM36, residues 208 to 252; numbered along this chain, Q9NQ86 (parent)
chain: KILMCPEHETERINMYCELCRRPVCHLCKLGGNHANHRVTTMSSA

Variants of: B1
Assay: abundance fitness (aPCA) (normalised: wild type 0, dead -1); higher = more abundant; growth selection in yeast, the domain comes from the species named
Settings: Homo sapiens

Abundance fitness of substitutions, site by site:
P23: K -0.146 ± 0.059; V -0.081 ± 0.063; S -0.058 ± 0.065; M -0.189 ± 0.092; N -0.032 ± 0.077; A -0.064 ± 0.058; E 0.037 ± 0.063
V24: L -0.129 ± 0.058; K -0.533 ± 0.077; S -0.446 ± 0.059; P -0.501 ± 0.064; M -0.133 ± 0.066; C -0.107 ± 0.11; D -0.453 ± 0.094; W -0.351 ± 0.056; Q -0.431 ± 0.08; N -0.49 ± 0.09; A -0.153 ± 0.056; R -0.44 ± 0.055; E -0.293 ± 0.062
N14: A -0.037 ± 0.077; P -0.195 ± 0.12; V 0.034 ± 0.16; L 0.036 ± 0.083; K 0.036 ± 0.068; H 0.055 ± 0.11; Y -0.065 ± 0.13; F 0.08 ± 0.1; G -0.152 ± 0.076; R -0.149 ± 0.071; S -0.041 ± 0.088; C 0.106 ± 0.1; Q 0.018 ± 0.06; D -0.13 ± 0.35; W -0.224 ± 0.072; M 0.073 ± 0.1; T 0.172 ± 0.1; E 0.048 ± 0.095
T10: G -0.071 ± 0.045; F -0.337 ± 0.11; N -0.282 ± 0.17; S -0.078 ± 0.057; A -0.12 ± 0.053; K 0.041 ± 0.057; V -0.161 ± 0.059; C -0.06 ± 0.088; Y -0.171 ± 0.082; H -0.039 ± 0.07; P -0.015 ± 0.082; D -0.132 ± 0.087; E -0.049 ± 0.064; W -0.273 ± 0.06; Q 0.021 ± 0.067; L -0.142 ± 0.058; R -0.039 ± 0.049; M -0.038 ± 0.069
H8: C -0.611 ± 0.076; Q -0.716 ± 0.073; W -1.6 ± 0.2; D -0.858 ± 0.089; N -0.819 ± 0.089; M -1.4 ± 0.22; S -0.786 ± 0.068; A -0.951 ± 0.065; Y -0.983 ± 0.15; L -1.24 ± 0.08; R -0.841 ± 0.059; F -0.795 ± 0.34; K -0.638 ± 0.065; V -1.13 ± 0.073; T -0.72 ± 0.075; G -0.766 ± 0.055
L19: W -0.088 ± 0.056; Q 0.004 ± 0.067; P 0.029 ± 0.063; I 0.04 ± 0.08; S 0.069 ± 0.058; C 0.137 ± 0.067; K 0.052 ± 0.063; F -0.287 ± 0.18; N 0.169 ± 0.11; H 0.004 ± 0.13; M 0.004 ± 0.07; D 0.021 ± 0.077; E 0.117 ± 0.057; G 0.068 ± 0.047; V 0.039 ± 0.061; R 0.076 ± 0.049
R21: S -0.002 ± 0.051; F -0.425 ± 0.38; P -0.387 ± 0.088; L -0.084 ± 0.052; T -0.061 ± 0.075; A 0.002 ± 0.053; K 0.108 ± 0.071; Q -0.002 ± 0.11; C -0.083 ± 0.081; D 0.067 ± 0.11; N -0.121 ± 0.07; E 0.171 ± 0.083; W -0.416 ± 0.065; Y 0.027 ± 0.14; G -0.116 ± 0.055; V 0.01 ± 0.054
E18: R -0.385 ± 0.054; Q -0.08 ± 0.073; G -0.123 ± 0.058; L -0.196 ± 0.052; K -0.172 ± 0.071; N -0.151 ± 0.082; A -0.145 ± 0.055; P -0.269 ± 0.076; S -0.148 ± 0.057; Y -0.416 ± 0.12; H -0.343 ± 0.1; T -0.147 ± 0.06; D 0.116 ± 0.083; V -0.172 ± 0.069; M -0.178 ± 0.094; C -0.209 ± 0.083; W -0.236 ± 0.059
M15: C 0.12 ± 0.18; V -0.309 ± 0.27; R -0.329 ± 0.35; E -0.024 ± 0.13; T -0.08 ± 0.1; A -0.166 ± 0.18; Q -0.285 ± 0.23
C20: R -0.561 ± 0.05; G -0.595 ± 0.054; H -0.665 ± 0.13; E -0.491 ± 0.061; Q -0.504 ± 0.055; W -1.16 ± 0.082; F -1.37 ± 0.14; L -0.591 ± 0.066; I -1.01 ± 0.11; V -0.789 ± 0.059; K -0.547 ± 0.079; P -0.819 ± 0.059; A -0.652 ± 0.059; M -0.534 ± 0.084; D -0.393 ± 0.093; S -0.679 ± 0.064
E11: V -0.126 ± 0.077; G -0.047 ± 0.12; K -0.259 ± 0.11; Q -0.079 ± 0.13; R -0.602 ± 0.081; L -0.196 ± 0.11; W -0.52 ± 0.13; S -0.132 ± 0.097; P -0.854 ± 0.42; C -0.773 ± 0.1; A -0.376 ± 0.074; M -0.322 ± 0.13; Y 0.082 ± 0.27
R12: D -0.539 ± 0.18; A -0.258 ± 0.12; I -0.14 ± 0.079; E -0.016 ± 0.098; S -0.38 ± 0.26; K -0.365 ± 0.28; G -0.057 ± 0.061; P 0.186 ± 0.12; W -0.269 ± 0.083; L -0.034 ± 0.071
